The labels stand for the following.
T1: CNPY2 (UniProt Q9Y2B0)
T1 chain: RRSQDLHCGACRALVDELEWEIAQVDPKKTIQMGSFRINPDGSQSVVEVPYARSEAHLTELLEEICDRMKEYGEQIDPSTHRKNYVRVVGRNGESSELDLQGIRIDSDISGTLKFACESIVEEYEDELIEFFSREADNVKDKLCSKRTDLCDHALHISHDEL

T2: CNPY2 (UniProt Q9Y2B0)
T2 chain: T1 chain with C8A, C11A, C66A

B1: 6X His/T7-tagged PERK luminal domain (PERK-LD) (domain or fragment, UniProt Q9Z2B5 29-510, looked up)
chain: VAPARSLLAPASETVFGLGAAAAPTSAARVPAVATAEVTVEDAEALPAAAGEPESRATEPDDDVELRPRGRSLVIISTLDGRIAALDAENDGKKQWDLDVGSGSLVSSSLSKPEVFGNKMIIPSLDGDLFQWDRDRESMEAVPFTVESLLESSYKFGDDVVLVGGKSLITYGLSAYSGKLRYICSALGCRRWDSDEMEEEEDILLLQRTQKTVRAVGPRSGSEKWNFSVGHFELRYIPDMETRAGFIESTFKPGGNKEDSKIISDVEEQEATMLDTVIKVSVADWKVMAFSRKGGRLEWEYQFCTPIASAWLVRDGKVIPISLFDDTSYTASEEALGDEEDIVEAARGATENSVYLGMYRGQLYLQSSVRVSEKFPTSPKALESVNGENAIIPLPTIKWKPLIHSPSRTPVLVGSDEFDKCLSNDKYSHEEYSNGALSILQYPYDNGYYLPYYKRERNKRSTQITVRFLDSPHYSKNIRKKD
B2: PERK LD (protein)
chain: AGRARGLPAPTAEAAFGLGAAAAPTSATRVPAAGAVAAAEVTVEDAEALPAAAGEQEPRGPEPDDETELRPRGRSLVIISTLDGRIAALDPENHGKKQWDLDVGSGSLVSSSLSKPEVFGNKMIIPSLDGALFQWDQDRESMETVPFTVESLLESSYKFGDDVVLVGGKSLTTYGLSAYSGKVRYICSALGCRQWDSDEMEQEEDILLLQRTQKTVRAVGPRSGNEKWNFSVGHFELRYIPDMETRAGFIESTFKPNENTEESKIISDVEEQEAAIMDIVIKVSVADWKVMAFSKKGGHLEWEYQFCTPIASAWLLKDGKVIPISLFDDTSYTSNDDVLEDEEDIVEAARGATENSVYLGMYRGQLYLQSSVRISEKFPSSPKALESVTNENAIIPLPTIKWKPLIHSPSRTPVLVGSDEFDKCLSNDKFSHEEYSNGALSILQYPYDNGYYLPYYKRERNKRSTQITVRFLDNPHYNKNIRKKD
B3: His-tagged CNPY2 wild type (natural protein, UniProt Q9QXT0 21-182, looked up)
chain: T1 chain with Q24R, I65V, G90S, I157R
B4: His-tagged CNPY2 3C-A mutant (C28A, C31A, C86A) (natural protein, UniProt Q9QXT0 21-182, looked up)
chain: T1 chain with C8A, C11A, Q24R, I65V, C66A, G90S, I157R

Where a chain is given by its changes, count along the chain named. Numbers in names are those of the source.

Assay in all cases: ITC
On the technique in general: In ITC the heat of successive injections is recorded.

Test [1] addresses B3.
Test [2] deals with B4.
Test [3] has as its target T1, CNPY2.
In test [4] the target is T2, CNPY2.
Test [5] addresses B1.

Consider four molecules from PMC6102046 (Nature structural & molecular biology, 2017).

For orientation: stoichiometry N means a count of units in the complex or per binding partner. As to B1, the results for the “stoichiometry N” value in test [1] and in test [2] were 1.16 and 1.04, respectively.

As a reminder, the Kd is the constant that tells how readily two partners part at equilibrium. As for B2, the results for the Kd with CNPY2 [3] and in the test with CNPY2 [4] were 13.2 µM and 7.5 µM, respectively.

In test [5], B3 returned a Kd of 13.2 µM.

B4 had a Kd in test [5] of 7.5 µM.
